± gives the uncertainty stated by the source.
Assay: protein stability index of a GFP-peptide fusion (yeast GPS) (PSI 1-4); higher = more stable; sorted into four equal gates, so the index is relative within each strain
Summary of the method: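 Tiled 17-residue peptides from yeast proteins were fused downstream of GFP on a plasmid that also expresses Cherry, and the pooled library was carried in yeast. Mid-log cultures grown in leucine-free medium were sorted into four equal gates by GFP/Cherry fluorescence ratio. Plasmids from each gate were PCR-amplified and Illumina-sequenced, and reads were assigned to strains by barcodes. Each peptide's protein stability index is the sum, over gates, of the gate's read frequency multiplied by its gate number.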

Sequence | protein stability index (doa10∆) | protein stability index (pdr5∆) | protein stability index (san1∆) | protein stability index (ubr1∆)
ILDPQVTRFTTWNGSPF [YJL039C/NUP192] | 1.26 ± 0.09 | 2.03 ± 0.12 | 1.51 ± 0.17 | 2.56 ± 0.12
QRVCLRSDSYMLHKVLE [RPT6] | 2.84 ± 0.084 | 2.95 ± 0.073 | 2.81 ± 0.067 | 2.84 ± 0.047
AAQTLLQMDYKDDMKVD [PRE9] | 3.3 ± 0.1 | 3.3 ± 0.068 | 3.25 ± 0.063 | 3.26 ± 0.084
IDRNLKCQTCQEGMNEC [RPO21] | 2.48 ± 0.086 | 1.38 ± 0.061 | 2.56 ± 0.079 | 2.37 ± 0.079
DCMIAHGAASFLKERLM [RPB2] | 3.03 ± 0.088 | 2.54 ± 0.068 | 2.13 ± 0.1 | 2.09 ± 0.066
TELLDYATKLSKFTKIP [MED4] | – | 2.71 ± 0.23 | 2.98 ± 0.16 | –
QIPLHRAASVGSLKLIE [NAS6] | 2.04 ± 0.078 | 2.16 ± 0.084 | 2.23 ± 0.14 | 1.83 ± 0.1
EEEMAPYYKYLCEEYLV [RPN7] | 2.12 ± 0.087 | 2.74 ± 0.11 | 2.5 ± 0.14 | 2.64 ± 0.093
CDGDTVWDKFAVNLLNC [SSN2] | 3.29 ± 0.1 | 3.3 ± 0.098 | 3.14 ± 0.07 | 3.11 ± 0.1
PEILRFKVYEPLLLVGL [RPS16A] | 2.01 ± 0.12 | 2.31 ± 0.098 | 2.1 ± 0.18 | 2.65 ± 0.068
QQAQARLQQGRRLPMTM [SNF2] | 3.1 ± 0.065 | 3.15 ± 0.055 | 3.24 ± 0.035 | 3.22 ± 0.048
NTIIRDGSKMLKRADYT [RPN14] | 2.87 ± 0.096 | 2.36 ± 0.093 | 3.65 ± 0.039 | 2.2 ± 0.055
NTFNYDVKISNDFFDNG [RPN4] | 1.94 ± 0.08 | 2.3 ± 0.07 | 2.52 ± 0.091 | 2.48 ± 0.072
KETWLHELSSSHTSLVK [SRB8] | 1.81 ± 0.05 | 2.04 ± 0.056 | 1.87 ± 0.083 | 1.8 ± 0.055
SHNVDELLEHIETIGHL [RPN5] | 2.51 ± 0.084 | 2.24 ± 0.1 | 2.14 ± 0.11 | 1.53 ± 0.082
PPAYALLGSCQTDGMGL [RPC25] | 2.15 ± 0.11 | 2.57 ± 0.15 | 2.22 ± 0.19 | 2.41 ± 0.13
DNPDQGISDMCRLFFTE [YCS4] | 3.37 ± 0.14 | 3.63 ± 0.15 | 3.03 ± 0.14 | 3.04 ± 0.15
FGTGQSTFGFNNSAPNN [YJL041W/NSP1] | 3.17 ± 0.046 | 3.29 ± 0.051 | 3.1 ± 0.04 | 3.3 ± 0.036
DSILNYAKSEFDNVASV [ECM29] | 3.22 ± 0.11 | 3.14 ± 0.15 | 3.04 ± 0.087 | 3.15 ± 0.18
EGDIQVLKSYGAAPYAA [RPT1] | 2.84 ± 0.095 | 2.83 ± 0.12 | 3.05 ± 0.082 | 2.82 ± 0.063
NTLGKGQNCLDIDGIMD [SNU114] | 3.3 ± 0.23 | 3.15 ± 0.1 | 3.02 ± 0.12 | 3.2 ± 0.11
VREHYLRSDIPCLSRSC [DIS3] | 2.6 ± 0.051 | 2.72 ± 0.051 | 2.59 ± 0.051 | 2.44 ± 0.033
NKDLSELVIRLEKDAAD [YIL149C/MLP2] | 3.05 ± 0.078 | 3.15 ± 0.084 | 3.2 ± 0.061 | 3.15 ± 0.069
LTAIPILLEPIYEVDIT [SNU114] | 2.24 ± 0.047 | 1.75 ± 0.041 | 1.94 ± 0.054 | 2.19 ± 0.038
TTYSVDDYYKEIIGGGS [ISW2] | 3.32 ± 0.1 | 3.02 ± 0.13 | 3.19 ± 0.088 | 3.33 ± 0.13
KQNPGLMQNMMNMFGGG [SRP54] | 2.05 ± 0.086 | 2.36 ± 0.049 | 2.37 ± 0.088 | 1.8 ± 0.042
FSHLAGGKIINKLGNDP [BRR2] | 2.94 ± 0.19 | 3.1 ± 0.19 | 2.91 ± 0.085 | 3.02 ± 0.077

Sequence | protein stability index (doa10∆) | protein stability index (pdr5∆) | protein stability index (san1∆) | protein stability index (ubr1∆)
VCFNNLVDENTDYLYRR [YCS4] | 2.61 ± 0.067 | 2.56 ± 0.05 | 2.48 ± 0.081 | 2.08 ± 0.037
LLQVNKTFCEDPFSDVD [GRR1] | 3.13 ± 0.072 | 3.35 ± 0.051 | 3.32 ± 0.035 | 3.28 ± 0.036
TISKESTPDQRKRVYNI [ESC2] | 2.92 ± 0.15 | 3.16 ± 0.24 | 3.11 ± 0.17 | 3.01 ± 0.099
TSAASGDAAPAEEAAAE [RPP0] | – | 3.44 ± 0.13 | 3.13 ± 0.14 | 3.34 ± 0.11
PRYTYHTIFSDVCKTRF [YML031W/NDC1] | 2.77 ± 0.055 | 3 ± 0.051 | 2.62 ± 0.035 | 2.82 ± 0.055
ENVILGQMAPIGTGAFD [RPO21] | 2.33 ± 0.11 | 2.37 ± 0.13 | 2.36 ± 0.12 | 2.54 ± 0.056
RFVLSDDYSNLKREERQ [SMC3] | 2.27 ± 0.085 | 2.65 ± 0.081 | 2.43 ± 0.093 | 2.7 ± 0.059
EKLVSDLRLIKVPQQAA [SMC1] | 3.19 ± 0.18 | 3.44 ± 0.16 | 2.16 ± 0.24 | 3.3 ± 0.14
QQQQQNQQQQNQQPQQQ [SWI1] | 2.99 ± 0.041 | 3.06 ± 0.043 | 2.88 ± 0.032 | 2.85 ± 0.038
GDLLNAEVQSLFQDGSA [RRP4] | 2.18 ± 0.096 | 2.74 ± 0.13 | 2.94 ± 0.068 | 2.37 ± 0.096
PSAVAGFINQKNLKPQE [YIL149C/MLP2] | 3.16 ± 0.099 | 3.1 ± 0.084 | 2.98 ± 0.05 | 3.02 ± 0.042
NNYDDFMLSDDEGMESI [RRI2] | 2.54 ± 0.26 | 3.71 ± 0.19 | 3.37 ± 0.18 | –
FQIEADFIGHNSNINTL [ASC1] | 2.1 ± 0.06 | 2.63 ± 0.049 | 2.35 ± 0.081 | 2.68 ± 0.043
GSNYNPYFPGGSIAMAR [CYT1] | 2.08 ± 0.082 | 2.4 ± 0.13 | 2.59 ± 0.093 | 2.35 ± 0.048
FRNPTPLLSNYASKINR [RGR1] | 1.44 ± 0.058 | 1.6 ± 0.045 | 1.34 ± 0.11 | 1.66 ± 0.048
KALDRHEFFIANHDDQD [SRP68] | 3.1 ± 0.058 | 2.98 ± 0.091 | 2.89 ± 0.057 | 3.17 ± 0.07
SGNSANNMNVNMNLNPQ [GAL11] | 2.85 ± 0.046 | 2.87 ± 0.042 | 2.73 ± 0.033 | 2.93 ± 0.034
ALYVLRERIRKGLQIYQ [PRP8] | 2.54 ± 0.24 | 2.85 ± 0.11 | 2.26 ± 0.13 | 2.41 ± 0.29
ETIKSLEDPYKYHYKEE [CSN9] | 3.17 ± 0.09 | 3.13 ± 0.082 | 3.09 ± 0.07 | 3.14 ± 0.06
QYMEELADDDEERFSEL [RPL5] | 1.12 ± 0.14 | 1.14 ± 0.18 | – | –
HKTFLVANVKDLETLTM [RPL32] | – | 3.39 ± 0.26 | 3.22 ± 0.09 | 2.83 ± 0.17
KPHGLAARVDIGQIIFS [RPL10] | 2.31 ± 0.058 | 2.13 ± 0.037 | 1.72 ± 0.082 | 2.15 ± 0.036
YIYLSHETLARSSEEIN [RPN3] | 3.15 ± 0.26 | – | – | 3.15 ± 0.18
PFKFGKTSEKSENHTES [YOR098C/NUP1] | 2.94 ± 0.16 | 3.05 ± 0.14 | 3.1 ± 0.15 | 2.92 ± 0.17
NKLDEYHGLYTNYEMSY [LIN1] | 1.56 ± 0.065 | 1.78 ± 0.059 | 1.78 ± 0.093 | 1.6 ± 0.068
VRSLLEVVQTGAKNIEI [PRE6] | 3.38 ± 0.14 | 3.29 ± 0.098 | 3.06 ± 0.074 | 3.21 ± 0.069
SVNKNKRQAYAVSEKAG [RPL4A] | – | 1.69 ± 0.17 | – | 3.29 ± 0.13
